Results reported in patent US20230129812A1, “COMPOSITIONS AND METHODS FOR TREATING PULMONARY HYPERTENSION” (Acceleron Pharma Inc., priority 2020, published 2023).
Numbering of substitutions follows the chain as printed. Names may count otherwise.

B1: ActRIIB(20-134)-hFc: extracellular domain of human ActRIIB (residues 20-134, R64) fused to a human Fc domain with a minimal linker (protein)
chain: GRGEAETRECIYYNANWELERTNQSGLERCEGEQDKRLHCYASWRNSSGTIELVKKGCWLDDFNCYDRQECVATEENPQVYFCCCEGNFCNERFTHLPEAGGPEVTYEPPPTAPTGGGTHTCPPCPAPELLGGPSVFLFPPKPKDTLMISRTPEVTCVVVDVSHEDPEVKFNWYVDGVEVHNAKTKPREEQYNSTYRVVSVLTVLHQDWLNGKEYKCKVSNKALPVPIEKTISKAKGQPREPQVYTLPPSREEMTKNQVSLTCLVKGFYPSDIAVEWESNGQPENNYKTTPPVLDSDGSFFLYSKLTVDKSRWQQGNVFSCSVMHEALHNHYTQKSLSLSPGK
B2: ActRIIB(L79D 20-134)-hFc: ActRIIB amino acids 20-134 with an L79D substitution fused to a human Fc domain (protein)
chain: B1 chain with L60D

How the values were obtained:
[1] = target: T1, GDF8 (Homo sapiens, UniProt O14793); test: Biacore assay, ActRIIB-Fc captured with anti-hFc antibody, ligand injected (Example 8); assay type: binding; settings: for Koff: GDF8, Table 10
T1 sequence (O14793 267-375): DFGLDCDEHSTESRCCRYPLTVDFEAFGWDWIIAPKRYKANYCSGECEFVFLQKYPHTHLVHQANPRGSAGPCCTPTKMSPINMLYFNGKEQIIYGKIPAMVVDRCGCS
Description: (§1) Binding of certain ActRIIB-Fc proteins and ActRIIB variant Fc fusion polypeptides to ligands was tested in a Biacore™ assay.
(§2) The ActRIIB-Fc variants or wild-type protein were captured onto the system using an anti-hFc antibody. Ligands were injected and flowed over the captured receptor proteins.

[2] = target: T2, activin A (Homo sapiens, UniProt P08476); test: as above; assay type: binding
T2 sequence (P08476 311-426): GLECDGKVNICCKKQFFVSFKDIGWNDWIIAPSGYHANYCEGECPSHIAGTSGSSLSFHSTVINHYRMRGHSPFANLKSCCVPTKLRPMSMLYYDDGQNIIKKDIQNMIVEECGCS
Description: as §1, §2

[3] = target: T3, GDF11 (Homo sapiens, UniProt O95390); test: as above; assay type: binding; settings: for Koff: GDF11, Table 10
T3 sequence (O95390 299-407): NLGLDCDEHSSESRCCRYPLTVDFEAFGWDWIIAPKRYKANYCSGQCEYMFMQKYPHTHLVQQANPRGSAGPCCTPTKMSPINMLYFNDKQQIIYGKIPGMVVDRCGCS
Description: as §1, §2

[4] = target: T2, activin A; test: A-204 reporter gene assay, pGL3(CAGA)12 luciferase; assay type: cell-based; settings: for inhibition of activin A signaling: A-204 reporter gene assay; for Activin Inhibition Activity: Table 9, cell-based A-204 assay
Excerpt: (§3) An A-204 reporter gene assay was used to evaluate the effects of ActRIIB-Fc proteins and ActRIIB variant Fc fusion polypeptides on signaling by GDF-11 and activin A. Cell line: human rhabdomyosarcoma (derived from muscle). Reporter vector: pGL3(CAGA)12 (described in Dennler et al, 1998, EMBO 17: 3091-3100). The CAGA12 motif is present in TGF-beta responsive genes (e.g., PAI-1 gene), so this vector is of general use for factors signaling through SMADs.
(§4) Day 1: Split A-204 cells into 48-well plate.
(§5) Day 2: A-204 cells transfected with 10 ug pGL3(CAGA)12 or pGL3(CAGA)12(10 ug)+pRLCMV (1 pg) and Fugene.
(§6) Day 3: Add factors (diluted into medium+0.1% BSA). Inhibitors need to be preincubated with factors for 1 hr before adding to cells. Six hrs later, cells were rinsed with PBS and lysed.
(§7) This is followed by a luciferase assay.
(§8) Activity of ActRIIB-Fc proteins and ActRIIB variant Fc fusion polypeptides was tested in a cell-based assay as described above. Some variants were tested in different C-terminal truncation constructs. As discussed above, truncations of five or fifteen amino acids caused reduction in activity. […]

[5] = target: T2, activin A; test: Biacore ligand affinity of ActRIIB-hFc forms, steady-state affinity fit; assay type: binding; settings: Table 12; Kd by steady-state affinity fit; read-out: Activin A (Kd e−11)
Description: (§9) Affinities of several ligands for ActRIIB(25-131)-hFc and its full-length counterpart ActRIIB(20-134)-hFc were evaluated in vitro with a Biacore™ instrument, and the results are summarized in Table 8 below. Kd values were obtained by steady-state affinity fit due to very rapid association and dissociation of the complex, which prevented accurate determination of kon and koff. ActRIIB(25-131)-hFc bound, for example, activin A, activin B, and GDF11 with high affinity.
(§10) The affinity of ActRIIB variants and other ActRIIB-hFc proteins for several ligands was evaluated in vitro with a Biacore™ instrument. Kd values were obtained by steady-state affinity fit due to the very rapid association and dissociation of the complex, which prevented accurate determination of kon and koff.

[6] = target: T4, activin B (Homo sapiens, UniProt P09529); test: as above; assay type: binding; settings: Table 12; Kd by steady-state affinity fit; read-out: Activin B (Kd e−11)
T4 sequence (P09529 293-407): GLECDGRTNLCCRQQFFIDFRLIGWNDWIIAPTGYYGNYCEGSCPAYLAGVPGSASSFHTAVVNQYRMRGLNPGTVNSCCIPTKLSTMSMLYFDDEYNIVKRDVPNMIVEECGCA
Description: as §9, §10

[7] = target: T3, GDF11; test: as above; assay type: binding; settings: Table 12; Kd by steady-state affinity fit; read-out: GDF11 (Kd e−11)
Description: as §9, §10

[8] = target: T3, GDF11; test: A-204 reporter gene assay, pGL3(CAGA)12 luciferase; assay type: cell-based; settings: for inhibition of GDF11 signaling: A-204 reporter gene assay; for GDF11 Inhibition Activity: Table 9, cell-based A-204 assay
Excerpt: as §3, §4, §5, §6, §7, §8

[9] = target: T1, GDF8; test: A-204 reporter gene assay, pGL3(CAGA)12 luciferase; assay type: cell-based
Excerpt: as §3, §4, §5, §6, §7
As described below, ActRIIB variants were also tested in this assay.
In addition, an A-204 Reporter Gene Assay was used to evaluate the effects of ALK4-Fc:ActRIIB-Fc heterodimer and ActRIIB-Fc:ActRIIB-Fc homodimer on signaling by activin A, activin B, GDF11, GDF8, BMP10, and BMP9. Cell line: Human Rhabdomyosarcoma (derived from muscle). Reporter vector: pGL3(CAGA)12 (as described in Dennler et al, 1998, EMBO 17: 3091-3100). The CAGA12 motif is present in TGFβ responsive genes (PAI-1 gene), so this vector is of general use for factors signaling through Smads. An exemplary A-204 Reporter Gene Assay is outlined below. • Day 1: Split A-204 cells into 48-well plate. • Day 2: A-204 cells transfected with 10 ug pGL3(CAGA)12 or pGL3(CAGA)12(10 ug)+pRLCMV (1 ug) and Fugene. • Day 3: Add factors (diluted into medium+0.1% BSA). Inhibitors need to be pre-incubated with Factors for about one hr before adding to cells. About six hrs later, cells are rinsed with PBS and then lysed.
Following the above steps, a Luciferase assay was performed.

[10] = cell-free Biacore assay, Example 8

Molecule | Koff [1] [s⁻¹] | Koff ([2]; Activin A, Table 10) [s⁻¹] | Koff [3] [s⁻¹] | inhibition of activin A signaling [4] | Activin Inhibition Activity [4] | Kd [5] [nM] | Kd [6] [nM] | Kd [7] [nM] | inhibition of GDF11 signaling [8] | GDF11 Inhibition Activity [8] | inhibition of GDF8 signaling [9] | myostatin (GDF8) binding [1, 10] | KD (M) ([2]; Activin A, Table 10) | activin A binding [2, 10] | GDF11 binding [3, 10]
B1 | 3.45e-05 | 0.000159 | 0.000113 | potent inhibitor | +++ (Good (wild-type) activity (roughly 1 × 10^−8 KI)) | 0.016 | 0.012 | 0.036 | potent inhibitor | +++ (Good (wild-type) activity (roughly 1 × 10^−8 KI)) | potent inhibitor |  |  |  | 
B2 | 0.00083 |  | 0.000439 | substantial loss of activin A inhibition | + (Poor activity (roughly 1 × 10^−6 KI)) | 13.5 | 0.788 | 0.123 | almost wild-type inhibition of GDF11 | +++ (Good (wild-type) activity (roughly 1 × 10^−8 KI)) |  | retains myostatin and GDF11 binding | Low binding | markedly decreased (non-quantifiable) binding to activin A | retains myostatin and GDF11 binding
